No end group written: not given here.
Target: fibrinogen (free fibrinogen in rat plasma) (rat) (UniProt P06399)
Test: cell-based or functional assay

free fibrinogen level in plasma after incubation ex vivo with RTL PA (80 µM): < 36 mg/dL
B1: RTL PA nanofiber (…(K)-C12 peptide amphiphile) (peptide)
peptide: RTLAFVRFKKKAAVV-{K(lauroyl)-NH2}
modifications: also: self-assembled nanofiber
